# In PMC6277173:
# Positions count from the first letter of the chain named.
# B1: human anti HIV-1 monoclonal antibody 2F5 IgG (antibody, V domains shown)
# VH: RITLKESGPPLVKPTQTLTLTCSFSGFSLSDFGVGVGWIRQPPGKALEWLAIIYSDDDKRYSPSLNTRLTITKDTSKNQVVLVMTRVSPVDTATYFCAHRRGPTTLFGVPIARGPVNAMDVWGQGITVTISS
# VL: ALQLTQSPSSLSASVGDRITITCRASQGVTSALAWYRQKPGSPPQLLIYDASSLESGVPSRFSGSGSGTEFTLTISTLRPEDFATYYCQQLHFYPHTFGGGTRVDVR
# B2: BM07/vL03 (su3H6 with T94hR, F46lL, Q49lS) (antibody, V domains shown)
# VH: EVQLVQSGAEVKKPGATVKISCKVSGYTFTDYFMHWVQQAPGKGLEWMGYINCYTGATNYSQKFKGRVTITADTSTDTAYMELSSLRSEDTAVYYCARTSIGYGSSPPFPYWGQGTLVTVS
# VL: ETTLTQSPAFMSATPGDKVNISCITSTDIDDDMNWYQQKPGEAAILIISDGNTLRPGIPPRFSGSGYGTDFTLTINNIESEDAAYYFCLQSDNLPYTFGQGTKLEIK
# B3: BM07 (su3H6 with T94hR) (antibody, V domains shown)
# VH: B2 VH
# VL: B2 VL with L46F, S49Q
# B4: BM07/vL01 (su3H6 with T94hR, F46lL) (antibody, V domains shown)
# VH: B2 VH
# VL: B2 VL with S49Q
# B5: BM07/vL02 (su3H6 with T94hR, Q49lS) (antibody, V domains shown)
# VH: B2 VH
# VL: B2 VL with L46F
# B6: BM09 (su3H6 with T94hR, Y27hA) (antibody, V domains shown)
# VH: B2 VH with Y27A
# VL: B2 VL with L46F, S49Q
# B7: mouse antibody Ab2/3H6 (wt3H6) (antibody, V domains shown)
# VH: GVQLQQSGPELVKTGASVKISCKASGYSFTDYFMHWVKQSHGKSLDWIGYINCYTGATNYSQKFKGKATFTVDTSSNTAYMQFNSLTSEDSAVYYCARTSIGYGSSPPFPYWGQGTLVTVS
# VL: ETTVTQSPASLSMSIGEKVTIRCITSTDIDDDMNWYQQKPGEPPRLLISDGNTLRPGVPSRFSSSGYGTDFVFTIENMLSEDVADYYCLQSDNLPYTFGGGTNLEIK
# How the values were obtained:
# [1] = target: BM07 (su3H6 with T94hR); test: BLI; protein A bio-assay (Octet QKe): Ab2/3H6 variants captured from concentrated culture supernatants on protein A biosensors, blocked with an unspecific scFv-Fc antibody, association and dissociation of 2F5 IgG measured; kinetics buffer; KD averaged
# [2] = target: BM09 (su3H6 with T94hR, Y27hA); test: as above
# [3] = target: BM07/vL02 (su3H6 with T94hR, Q49lS); test: as above
# [4] = target: BM07/vL01 (su3H6 with T94hR, F46lL); test: as above
# [5] = target: BM07/vL03 (su3H6 with T94hR, F46lL, Q49lS); test: as above
# [6] = target: human anti HIV-1 monoclonal antibody 2F5 IgG (human); test: BLI; streptavidin bio-assay (Octet QKe): biotinylated 2F5 IgG loaded on streptavidin biosensors, association and dissociation of purified Ab2/3H6 variants; kinetics buffer; KD averaged over different Ab2/3H6 concentrations
Binder,Kd [6] [µM],also measured
B1,,Kd [1]: 0.17 µM; Kd [2]: 39 µM; Kd [3]: 0.095 µM; Kd [4]: 0.022 µM; Kd [5]: 0.021 µM
B2,0.029,
B3,0.33,
B4,0.028,
B5,0.059,
B6,8.3,
B7,0.035,
